The text below walks through data of patent publication US20140213531A1 (POLYPHOR, published 2014).

First the molecules themselves.
B1: Example 29 (peptide)
peptide: XCTKSDPPICD
HELM: PEPTIDE1{[O=C([C@H](CCc1ccccc1)N[*:1])[*:2]].C.T.K.S.D.P.P.I.C.D.[dP].P}$PEPTIDE1,PEPTIDE1,2:R3-10:R3|PEPTIDE1,PEPTIDE1,1:R1-13:R2$$$V2.0
SMILES: CC[C@H](C)[C@@H]1NC(=O)[C@@H]2CCCN2C(=O)[C@@H]2CCCN2C(=O)[C@H](CC(=O)O)NC(=O)[C@H](CO)NC(=O)[C@H](CCCCN)NC(=O)[C@H]([C@@H](C)O)NC(=O)[C@@H]2CSSC[C@H](NC1=O)C(=O)N[C@@H](CC(=O)O)C(=O)N1CCC[C@@H]1C(=O)N1CCC[C@H]1C(=O)N[C@@H](CCc1ccccc1)C(=O)N2
B2: Example 34 (peptide)
peptide: XCTKSDPPICT
HELM: PEPTIDE1{[Cha].C.T.K.S.D.P.P.I.C.T.[dP].P}$PEPTIDE1,PEPTIDE1,2:R3-10:R3|PEPTIDE1,PEPTIDE1,1:R1-13:R2$$$V2.0
SMILES: CC[C@H](C)[C@@H]1NC(=O)[C@@H]2CCCN2C(=O)[C@@H]2CCCN2C(=O)[C@H](CC(=O)O)NC(=O)[C@H](CO)NC(=O)[C@H](CCCCN)NC(=O)[C@H]([C@@H](C)O)NC(=O)[C@@H]2CSSC[C@H](NC1=O)C(=O)N[C@@H]([C@@H](C)O)C(=O)N1CCC[C@@H]1C(=O)N1CCC[C@H]1C(=O)N[C@@H](CC1CCCCC1)C(=O)N2
B3: Example 61 (peptide)
peptide: WCTKSDPPICS
HELM: PEPTIDE1{W.C.T.K.S.D.P.P.I.C.S.[dP].P}$PEPTIDE1,PEPTIDE1,2:R3-10:R3|PEPTIDE1,PEPTIDE1,1:R1-13:R2$$$V2.0
SMILES: CC[C@H](C)[C@@H]1NC(=O)[C@@H]2CCCN2C(=O)[C@@H]2CCCN2C(=O)[C@H](CC(=O)O)NC(=O)[C@H](CO)NC(=O)[C@H](CCCCN)NC(=O)[C@H]([C@@H](C)O)NC(=O)[C@@H]2CSSC[C@H](NC1=O)C(=O)N[C@@H](CO)C(=O)N1CCC[C@@H]1C(=O)N1CCC[C@H]1C(=O)N[C@@H](Cc1c[nH]c3ccccc13)C(=O)N2
B4: Example 35 (peptide)
peptide: XCTKSDPPICD
HELM: PEPTIDE1{[Cha].C.T.K.S.D.P.P.I.C.D.[dP].P}$PEPTIDE1,PEPTIDE1,2:R3-10:R3|PEPTIDE1,PEPTIDE1,1:R1-13:R2$$$V2.0
SMILES: CC[C@H](C)[C@@H]1NC(=O)[C@@H]2CCCN2C(=O)[C@@H]2CCCN2C(=O)[C@H](CC(=O)O)NC(=O)[C@H](CO)NC(=O)[C@H](CCCCN)NC(=O)[C@H]([C@@H](C)O)NC(=O)[C@@H]2CSSC[C@H](NC1=O)C(=O)N[C@@H](CC(=O)O)C(=O)N1CCC[C@@H]1C(=O)N1CCC[C@H]1C(=O)N[C@@H](CC1CCCCC1)C(=O)N2
B5: Example 41 (peptide)
peptide: XCTKSDPPICN
HELM: PEPTIDE1{[Nle].C.T.K.S.D.P.P.I.C.N.[dP].P}$PEPTIDE1,PEPTIDE1,2:R3-10:R3|PEPTIDE1,PEPTIDE1,1:R1-13:R2$$$V2.0
SMILES: CCCC[C@@H]1NC(=O)[C@@H]2CCCN2C(=O)[C@H]2CCCN2C(=O)[C@H](CC(N)=O)NC(=O)[C@@H]2CSSC[C@H](NC1=O)C(=O)N[C@@H]([C@@H](C)O)C(=O)N[C@@H](CCCCN)C(=O)N[C@@H](CO)C(=O)N[C@@H](CC(=O)O)C(=O)N1CCC[C@H]1C(=O)N1CCC[C@H]1C(=O)N[C@@H]([C@@H](C)CC)C(=O)N2
B6: Example 43 (peptide)
peptide: XCTKSDPPICD
HELM: PEPTIDE1{[Nle].C.T.K.S.D.P.P.I.C.D.[dP].P}$PEPTIDE1,PEPTIDE1,2:R3-10:R3|PEPTIDE1,PEPTIDE1,1:R1-13:R2$$$V2.0
SMILES: CCCC[C@@H]1NC(=O)[C@@H]2CCCN2C(=O)[C@H]2CCCN2C(=O)[C@H](CC(=O)O)NC(=O)[C@@H]2CSSC[C@H](NC1=O)C(=O)N[C@@H]([C@@H](C)O)C(=O)N[C@@H](CCCCN)C(=O)N[C@@H](CO)C(=O)N[C@@H](CC(=O)O)C(=O)N1CCC[C@H]1C(=O)N1CCC[C@H]1C(=O)N[C@@H]([C@@H](C)CC)C(=O)N2
B7: Example 32 (peptide)
peptide: XCTKSDPPICY
HELM: PEPTIDE1{[Nc1ccc(C[C@H](N[*:1])C(=O)[*:2])cc1].C.T.K.S.D.P.P.I.C.Y.[dP].P}$PEPTIDE1,PEPTIDE1,2:R3-10:R3|PEPTIDE1,PEPTIDE1,1:R1-13:R2$$$V2.0
SMILES: CC[C@H](C)[C@@H]1NC(=O)[C@@H]2CCCN2C(=O)[C@@H]2CCCN2C(=O)[C@H](CC(=O)O)NC(=O)[C@H](CO)NC(=O)[C@H](CCCCN)NC(=O)[C@H]([C@@H](C)O)NC(=O)[C@@H]2CSSC[C@H](NC1=O)C(=O)N[C@@H](Cc1ccc(O)cc1)C(=O)N1CCC[C@@H]1C(=O)N1CCC[C@H]1C(=O)N[C@@H](Cc1ccc(N)cc1)C(=O)N2
B8: Example 27 (peptide)
peptide: XCTKSDPPICN
HELM: PEPTIDE1{[O=C([C@H](CCc1ccccc1)N[*:1])[*:2]].C.T.K.S.D.P.P.I.C.N.[dP].P}$PEPTIDE1,PEPTIDE1,2:R3-10:R3|PEPTIDE1,PEPTIDE1,1:R1-13:R2$$$V2.0
SMILES: CC[C@H](C)[C@@H]1NC(=O)[C@@H]2CCCN2C(=O)[C@@H]2CCCN2C(=O)[C@H](CC(=O)O)NC(=O)[C@H](CO)NC(=O)[C@H](CCCCN)NC(=O)[C@H]([C@@H](C)O)NC(=O)[C@@H]2CSSC[C@H](NC1=O)C(=O)N[C@@H](CC(N)=O)C(=O)N1CCC[C@@H]1C(=O)N1CCC[C@H]1C(=O)N[C@@H](CCc1ccccc1)C(=O)N2
B9: Example 45 (peptide)
peptide: XCTKSDPPICN
HELM: PEPTIDE1{[O=C([C@H](Cc1ccccc1Cl)N[*:1])[*:2]].C.T.K.S.D.P.P.I.C.N.[dP].P}$PEPTIDE1,PEPTIDE1,2:R3-10:R3|PEPTIDE1,PEPTIDE1,1:R1-13:R2$$$V2.0
SMILES: CC[C@H](C)[C@@H]1NC(=O)[C@@H]2CCCN2C(=O)[C@@H]2CCCN2C(=O)[C@H](CC(=O)O)NC(=O)[C@H](CO)NC(=O)[C@H](CCCCN)NC(=O)[C@H]([C@@H](C)O)NC(=O)[C@@H]2CSSC[C@H](NC1=O)C(=O)N[C@@H](CC(N)=O)C(=O)N1CCC[C@@H]1C(=O)N1CCC[C@H]1C(=O)N[C@@H](Cc1ccccc1Cl)C(=O)N2
B10: Example 33 (peptide)
peptide: XCTKSDPPICN
HELM: PEPTIDE1{[Cha].C.T.K.S.D.P.P.I.C.N.[dP].P}$PEPTIDE1,PEPTIDE1,2:R3-10:R3|PEPTIDE1,PEPTIDE1,1:R1-13:R2$$$V2.0
SMILES: CC[C@H](C)[C@@H]1NC(=O)[C@@H]2CCCN2C(=O)[C@@H]2CCCN2C(=O)[C@H](CC(=O)O)NC(=O)[C@H](CO)NC(=O)[C@H](CCCCN)NC(=O)[C@H]([C@@H](C)O)NC(=O)[C@@H]2CSSC[C@H](NC1=O)C(=O)N[C@@H](CC(N)=O)C(=O)N1CCC[C@@H]1C(=O)N1CCC[C@H]1C(=O)N[C@@H](CC1CCCCC1)C(=O)N2

This experiment concerns the target T1, CathepsinG, from human neutrophils (human, UniProt P08311 21-244).
T1 sequence (looked up): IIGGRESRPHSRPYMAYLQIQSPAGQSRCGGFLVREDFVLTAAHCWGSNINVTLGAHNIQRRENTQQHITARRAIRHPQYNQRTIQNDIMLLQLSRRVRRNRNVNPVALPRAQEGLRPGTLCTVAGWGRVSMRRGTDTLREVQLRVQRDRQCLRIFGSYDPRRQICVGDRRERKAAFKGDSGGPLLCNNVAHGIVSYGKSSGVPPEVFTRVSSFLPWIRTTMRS
The experiment in a line: cell-based or functional assay.
Consider B1, for which the IC50 is 42 nmol.

B2 registered an IC50 of 56 nmol.

Molecule B3 came in with an IC50 of 72 nmol.

For the molecule B4, the IC50 was 54 nmol.

In turn, B5 gave an IC50 of 49 nmol.

As for B6, the IC50 came to 77 nmol.

On to B7, for which the IC50 came to 52 nmol.

In turn, B8 yielded an IC50 of 48 nmol.

Consider B9, for which the IC50 turned out to be 47 nmol.

In turn, B10 returned an IC50 of 45 nmol.
